{"source": "paper PMC5798300", "biological_target": "(2S)-methylsuccinyl-CoA dehydrogenase from Paracoccus denitrificans, wild type, as used for analytical size-exclusion chromatography (Paracoccus denitrificans)", "test": "SEC; analytical; Superdex 200 Increase 10/300 GL, 100 µl at 2 mg/ml, 0.7 ml/min, 20 mM Tris-HCl pH 7.9, 200 mM NaCl; enzymes incubated with 500 µM FAD for 1 h on ice beforehand; calibrated with a gel filtration standard", "data": [{"substance": "(2S)-methylsuccinyl-CoA dehydrogenase from Paracoccus denitrificans, wild type, as used for analytical size-exclusion chromatography (enzyme)", "values": [{"measurement": "stoichiometry N", "value": 2}]}]}
